From the DeepSol protein solubility set

Assay: soluble on expression in E. coli; label from the status in PepcDB or PDB records

MAYFTAKRASSMGASTVPSGNDHLLEALTLCDCILSRYKRCGVQLNDAEAAAFANLQQRISSISGHAADAACPAGATRKQSQELGLHEYAQLAQRCLIFQNPLAQIVATINEEFSKLVSCSVRTHYANTNDAVLCDPVHDTVATIDTSTPIGRCAKTKTTVTISDTVYIPLCYNSHVVGCLEVESTAIDTSTPFFGYLLQVAALTLQNATSIDTLRWETRKAEAMVGMATRLARDTLEESVLVQSIINTAKTLTESDRCSIFLVKADGSLEAHFEDGNVVVLPAGTGIAGHVAESGAVVNIPNAYEDDRFHRSVDKVTGYHTRTILCLPIAFEGTIVAVAQLINKLDMVTQSGQRLPRVFGRRDEELFETFSMFAAASLRNCRINETLLKEKKKSDAILDVVALLSNTDIRDVDSIVRHVLHGAKKLLNADRSSMFLLDKERNELYSKMADSANEIRFPCGQGIAGTVAESGVGENIMDAYADSRFNSAVDRQLGYRTQSILCEPITLNGEVLAVVQLVNKLGDDGSVTCFTPTDQETFKVFSLFAGISINNSHLLEFAVNAGREAMTLNLQRNSITAQRAPKSVKVIAVTPEEREAVMSIDFGGAYDFTSPGFNLFEVREKYSEPMDAAAGVVYNLLWNSGLPEKFGCREQTLLNFILQCRRRYRRVPYHNFYHVVDVCQTLHTYLYTGKASELLTELECYVLLVTALVHDLDHMGVNNSFYLKTDSPLGILSSASGNNSVLEVHHCSLAIEILSDPAADVFEGLSGQDVAYAYRALIDCVLATDMARHGDLSRVFDDMAKAGYDSNDQESRRLVMETLIKAGDVSNVTKPFETSRMWAMAVTEEFYRQGDMEKEKGVEVLPMFDRSKNNELARGQIGFIDFVAGKFFRDIVGNLFHGMQWCVDTVNSNRAKWQEILDGRRDSIRPSIV
soluble on expression in E. coli: not soluble

MGHHHHHHSHMSKESVTVAGIDCGTNSIRLKIARVDADGMHEVVPRILRVIRLGQDVDKTHRFADEALERAYVAAREFAGVIAEHPIDGLRFVATSATRDAENREEFEDEIERILGVRPEVIPGTEEADLSFLGATSVVNRDDLPAPYLVVDLGGGSTELVIGGDGVSAPTTQVQGAFSMNIGSVRMTERHLTNDPPTQTQIDEAVADVDEHIDEAFRTVDAGKARTIIGVSGTVTTMTALAMGLKEYDHTVVDGHRLSFEDAYAVDDKFLRMTRAERREYKTIHPGRIDVVGGGAVVWSRVLARVSEAAKADHGEAIDSFVASEHGLLDGIVLDYGRRLLAQ
soluble on expression in E. coli: soluble

MGSDKIHHHHHHMKGEETLKKALLNIGKESPFYYYVLLGVKLVPSKNTRNLKLSFSTTGDVMLLYNPEAIGKKPLRMVQALLIHEVMHIVLQHFRIKPKDERDRKIWDLAMDAAINQYIPELAAFGVPLDVLVKEGHTTDNDTLFVLPPEWMMFENAEMYHKWILEEMERLGRYDVEVVAEFRDNVDDHSGLFEEDVPVEMILDLTKDRTKKAFNLFGNTLPSGVRREVSLSLENPELDWKTLLRRFFGVSIKADRYTTPLRPNRRYDHLPGWRNEYLPRIAAVVDTSGSIVEKELNQFISELEKISNIAGEELWLVQVDKSVTSAMKYRSGKWKDLEIVGGGSTDLQPAIDYSERVLRSEGTVVFTDGHTDVPIARRRILFVLSRYHNEEFLKEARKMYGRDAVVVLS
soluble on expression in E. coli: not soluble

MGSDKIHHHHHHMKAISANLQRLLAESGMKQSHLATILNIPTSSLNEYVKGKSLPKIGNIQKIADYFGLQKSDIDPRFASKKDSSTLDKINHIAKQLEMKRQIKVLDFCYQQSKEQDETASLSASDETTEDKVADKSNHTQYQKVVDSFIAKELNDQTIIHWDNVIKAKDLYQTFGRQYENIQIYGEVSAGTGIWVGHEKQETIKYPIPIPEHDIALIVNGNSMEPLFYNGDVIFVKKTKAIHHGQIIVVIVNNEAYVKKLYRKNKEIRLISLNPDYDDIILKEDDTIEVIGTVIT
soluble on expression in E. coli: not soluble

MSIVMSAGKGVTQVVERCEAAKESGFLDLSSCQLMYMADAVYMLIKGYEITKVSIQDNGFKKFPKKFVIKFPTATILNMANNEISEIPEEVATWTSLKGLNAAKNKISKFPEPFLQLKNLIYLDLNGNQLEEIDVDLFYSSLPALIKLNLSGNEGLGDETKKKLKALKPEKLDLIL
soluble on expression in E. coli: not soluble

SNAMSKQLLALNIDGALLRSNGKIHQATKDAIEYVKKKGIYVTLVTNRHFRSAQKIAKSLKLDAKLITHSGAYIAEKIDAPFFEKRISDDHTFNIVQVLESYQCNIRLLHEKYSIGNKKKVNSNLLGKALIHPSDPIFYPVQFVESLSDLLMDEPVSAPVIEVYTEHDIQHDITETITKAFPAVDVIRVNDEKLNIVPKGVSKEAGLALVASELGLSMDDVVAIGHQYDDLPMIELAGLGVAMGNAVPEIKRKADWVTRSNDEQGVAYMMKEYFRMQQRKGFLDKFHMKR
soluble on expression in E. coli: soluble

GSEAWMNFYLEEFNLSIPDSGPYGITSSEDGKVWFTQHKANKISSLDQSGRIKEFEVPTPDAKVMCLIVSSLGDIWFTENGANKIGKLSKKGGFTEYPLPQPDSGPYGITEGLNGDIWFTQLNGDRIGKLTADGTIYEYDLPNKGSYPAFITLGSDNALWFTENQNNSIGRITNTGKLEEYPLPTNAAAPVGITSGNDGALWFVEIMGNKIGRITTTGEISEYDIPTPNARPHAITAGKNSEIWFTEWGANQIGRITNDNTIQEYQLQTENAEPHGITFGKDGSVWFALKCKIGKLNLNE
soluble on expression in E. coli: soluble

MKFTWYGQSCFLIETSRNKKILLDPFNNSIGYPTFKGEADIITVSHHHFDHDFIDCVTNSPKVIDKPGDYKIDDITIKGIPSFHDNVHGAARGENTIFLFNIDGFNVCHLGDIGYVLSDLEVKSLGNVDVLMIPVGGNFTIDGAEAGQLCKKINSNIILPMHYKTTFTILPLEGAEKFIMSMKNAERLQSNVLTLDTKTNEKNQVKIFSIKLEHHHHHH
soluble on expression in E. coli: not soluble

MGSDKIHHHHHHMSQQASLPDDDNWLLEDTDGDEAGRPSEVRKPWKVLIVDDEKDVHTATRIALRGISYKERPLELLSAYSGAEAFQMLQQHADIALIMLDVVMESEDAGLRLVHRIREELDNGVVRIVLRTGQPGQAPEQEVILNYDINDYKTKTELTTQKLFTTTIASLRAYENLVSLEKNRQGLAKILESASDLYQLHSLREFASGVLRQISALLDIGTDGILCVRNDNLVGRPELEILAVSGAYEYLAESGDLSNEPHLAAVFQQVFKEKRSIYQHPYDVLYISSRNRREFAVHFMPQWPLDSVERDLLDVFCQRISAAYDNLYLYNQLRSAQEATVVALADLAEFRDTDTGDHVLRVQKLTDAIAEEMVSHNHYPELMTHEFMDMVGMASILHDIGKVATPDHILLKPGKLDPEERAIMEQHATIGAQILAKSAQLVEGASYLSLGSEIAGGHHEHFDGNGYPGKLQGQAIPLSARIVAVVDVFDALLNKRPYKEPWSMEDTMKYINGRSGTQFDPHVVAALSRLVSEDRLPVQFGD
soluble on expression in E. coli: not soluble

MGSDKIHHHHHHMETCRQEVTMDKVFIISQKAEQQADAIETGIALARVLEKEAEVFAYSYESFAGKEYYNPRLGAAAKVALMNQRSEEIAAKLKALKAEDVAVHSVWTKDLFEHACHHSIRHGFDLMVKAVHHKTHYLPMDWQLIRHVRIPLMMLCDNPLQRARSVLMAVDLGSDNPIKQKLNQCVIQQGRQLAEAMDCQLHLAYIIRVPKILRDMDLIDTRTLVKDAYHRYQPQLDEIDLHQEHVHFLAGDPDLCLYELSCRLKAAYLVMGARQRKGLMGMVIGNTAEAMLTRIRSNVLIIPADDQLLPA
soluble on expression in E. coli: not soluble

SNQKIASIEQLSNNEGIISALAFDQRGALKRMMAKHQTEEPTVAQIEQLKVLVAEELTQYASSILLDPEYGLPASDARNKDCGLLLAYEKTGYDVNAKGRLPDCLVEWSAKRLKEQGANAVKFLLYYDVDDAEEINIQKKAYIERIGSECVAEDIPFFLEVLTYDDNIPDNGSVEFAKVKPRKVNEAMKLFSEPRFNVDVLKVEVPVNMKYVEGFAEGEVVYTKEEAAQHFKDQDAATHLPYIYLSAGVSAELFQETLKFAHEAGAKFNGVLCGRATWSGAVQVYIEQGEDAAREWLRTTGFKNIDDLNKVLKDTATSWKQ
soluble on expression in E. coli: not soluble

MCELLGMSANVPTDICFSFTGLVQRGGGTGPHKDGWGITFYEGKGCRTFKDPQPSFNSPIAKLVQDYPIKSCSVVAHIRQANRGEVALENTHPFTRELWGRNWTYAHNGQLTGYKSLETGNFRPVGETDSEKAFCWLLHKLTQRYPRTPGNMAAVFKYIASLADELRAKGVFNMLLSDGRYVMAYCSTNLHWITRRAPFGVATLLDQDVEIDFSSQTTPNDVVTVIATQPLTGNETWQKIMPGEWRLFCLGERVV
soluble on expression in E. coli: not soluble
